Kd data for nine sequences are collected here from the Immune Epitope Database (IEDB).

The target in one assay is HLA-C*06:02. Nature of the assay: IEDB peptide-MHC binding, purified MHC/direct/fluorescence; filed as Kd, often an IC50 or EC50 that approximates it; ≥ and ≤ were set here for values at or beyond the usual limits of such assays. The conditions noted are these: source organism: Kurkino virus.
A further assay has as its target HLA-C*07:02. Described as above. As to conditions: source organism: Kurkino virus.
For a further assay, the target named is HLA-B*48:01. The assay is described as above.
Assay [1] has as its target HLA-B*27:05. Described as above.
The next assay addresses HLA-B*15:01. The assay is described as above.
A further assay concerns the target HLA-A*02:19. The assay is described as above.
The next assay has as its target HLA-A*26:01. The description is as above.
In a further assay the target is HLA-A*03:01. The assay is described as above.
The target in the next assay is HLA-A*02:01. Described as above.
The next assay addresses HLA-B*46:01. The assay is described as above.
For the next assay, the target named is HLA-A*02:16. Described as above.
In the next assay the target is HLA-B*18:01. Described as above.
The target in the next assay is HLA-B*39:01. The assay is described as above.
In another assay the target is HLA-B*27:03. The assay is described as above.
The target of a further assay is HLA-A*02:12. The assay is described as above.
For assay [2], the target named is HLA-A*02:03. Described as above.
Another assay has as its target HLA-B*51:01. The description is as above.
The target in the next assay is HLA-B*73:01. Described as above. The conditions noted are these: source organism: Brucella suis 1330.
The target of the next assay is HLA-A*11:01. The description is as above.
The target of a further assay is HLA-B*44:02. The description is as above. As to conditions: source organism: Brucella melitensis.
The target in another assay is HLA-B*07:02. The assay is described as above.
A further assay has as its target HLA-B*40:01. The assay is described as above. The conditions noted are these: source organism: Brucella melitensis.
A further assay addresses HLA-A*01:01. The assay is described as above.
For assay [3], the target named is HLA-B*08:01. Described as above. The conditions noted are these: source organism: Brucella melitensis.
Another assay deals with HLA-A*31:01. The description is as above.
For the next assay, the target named is HLA-B*58:01. The description is as above.
The next assay concerns the target HLA-A*69:01. Described as above.
Another assay has as its target HLA-C*12:03. The description is as above. As to conditions: source organism: Coxiella burnetii RSA 493.
Assay [4] addresses HLA-B*15:02. The assay is described as follows: IEDB peptide-MHC binding, purified MHC/competitive/fluorescence; filed as Kd, often an IC50 or EC50 that approximates it; ≥ and ≤ were set here for values at or beyond the usual limits of such assays.
A further assay deals with HLA-A*02:11. The assay is described as follows: IEDB peptide-MHC binding, purified MHC/direct/fluorescence; filed as Kd, often an IC50 or EC50 that approximates it; ≥ and ≤ were set here for values at or beyond the usual limits of such assays. The conditions noted are these: source organism: Yersinia pestis CA88-4125.
A further assay has as its target HLA-B*57:01. Described as above.
The next assay concerns the target HLA-C*08:02. The assay is described as above. The conditions noted are these: source organism: Bacillus anthracis str. A0389.
The target of assay [5] is HLA-B*15:02. Described as above. The conditions noted are these: source organism: H9N2 subtype Influenza A virus (A/swine/Korea/S83/2004(H9N2)).
In the next assay the target is HLA-A*68:02. The assay is described as above. As to conditions: source organism: H9N2 subtype Influenza A virus (A/swine/Korea/S83/2004(H9N2)).
A further assay concerns the target HLA-B*15:17. The assay is described as above. As to conditions: source organism: H9N2 subtype Influenza A virus (A/swine/Korea/S83/2004(H9N2)).
Assay [6] concerns the target HLA-B*08:01. The assay is described as follows: IEDB peptide-MHC binding, purified MHC/competitive/fluorescence; filed as Kd, often an IC50 or EC50 that approximates it; ≥ and ≤ were set here for values at or beyond the usual limits of such assays. As to conditions: source organism: Influenza A virus H3N2.
The target in assay [7] is HLA-B*27:05. The assay is described as above. As to conditions: source organism: Influenza A virus H3N2.
For another assay, the target named is HLA-A*26:02. The assay is described as above. The conditions noted are these: source organism: Influenza A virus H3N2.
Assay [8] has as its target HLA-A*02:03. Described as above. As to conditions: source organism: Influenza A virus H3N2.
Where [9] appears, read: source organism: Orthohantavirus dobravaense.
[10] abbreviates: source organism: Yersinia enterocolitica subsp. enterocolitica 8081.
[11] abbreviates: source organism: Brucella melitensis.
Setting [12] is: source organism: Coxiella burnetii Q321.
Where [13] appears, read: source organism: Yersinia pestis CA88-4125.
Where [14] appears, read: source organism: Bacillus cereus.
[15] abbreviates: source organism: H9N2 subtype Influenza A virus (A/swine/Korea/S83/2004(H9N2)).

Usually Kd stands for the free concentration of one partner at which half of the binding sites on the other are occupied at equilibrium, for simple one-to-one binding. A higher Kd goes with lower affinity.

RRNDGVVQY: the Kd with HLA-C*06:02 was 0.061 µM; with HLA-C*07:02 it was 0.029 µM; with HLA-B*48:01 (setting [9]), no less than 20 µM; in the assay with HLA-B*27:05 [1] (setting [9]) it was 0.146 µM.

Regarding LAYLAGWII, the Kd in the assay with HLA-B*15:01 (setting [10]), with HLA-A*02:19 (setting [10]), with HLA-A*26:01 (setting [10]), in the assay with HLA-A*03:01 (setting [10]), with HLA-A*02:01 (setting [10]) and with HLA-B*46:01 (setting [10]) was no less than 20 µM each time. Moreover, the Kd in the assay with HLA-A*02:16 (setting [10]), with HLA-B*18:01 (setting [10]), in the assay with HLA-B*39:01 (setting [10]), with HLA-B*27:03 (setting [10]), in the assay with HLA-A*02:12 (setting [10]) and in the assay with HLA-A*02:03 [2] (setting [10]) was no less than 20 µM throughout. The Kd with HLA-B*51:01 (setting [10]) amounted to 1.39 µM.

As to RVISDGYFK, the Kd with HLA-B*15:01 (setting [11]) is no less than 20 µM; in the assay with HLA-A*26:01 (setting [11]), no less than 20 µM; with HLA-B*73:01, no less than 20 µM; with HLA-A*11:01 (setting [11]), 0.0538 µM; with HLA-B*44:02 it was no less than 20 µM; in the assay with HLA-A*03:01 (setting [11]), 0.395 µM. In addition, the Kd with HLA-B*07:02 (setting [11]) was no less than 20 µM; in the assay with HLA-A*02:01 (setting [11]), no less than 20 µM; with HLA-B*40:01, no less than 20 µM; with HLA-A*01:01 (setting [11]), no less than 20 µM; with HLA-B*08:01 [3], no less than 20 µM; in the assay with HLA-A*31:01 (setting [11]), 0.042 µM. Also, the Kd with HLA-B*27:05 [1] (setting [11]) was 7.19 µM; in the assay with HLA-B*58:01 (setting [11]) it was no less than 20 µM; in the assay with HLA-A*69:01 (setting [11]) it was no less than 20 µM.

Take IAFTRLFTV: the equilibrium dissociation constant (Kd) is no less than 20 µM with HLA-B*15:01 (setting [12]); no less than 20 µM in the assay with HLA-A*26:01 (setting [12]); no less than 20 µM with HLA-A*03:01 (setting [12]); no less than 20 µM with HLA-B*46:01 (setting [12]); no more than 0.001 µM in the assay with HLA-C*12:03; no less than 20 µM with HLA-B*18:01 (setting [12]). For the same sequence, the Kd is no less than 20 µM with HLA-B*39:01 (setting [12]), no less than 20 µM with HLA-B*27:03 (setting [12]) and 3.24 µM with HLA-B*51:01 (setting [12]).

Consider LQLARDGMF, for which, in the assay with HLA-B*15:02 [4] (source organism: Brucella suis ATCC 23445), the Kd is no less than 20 µM.

In the case of KLLARFLFE, the Kd with HLA-B*15:01 (setting [13]), in the assay with HLA-A*02:19 (setting [13]), with HLA-A*02:11, in the assay with HLA-A*26:01 (setting [13]), with HLA-A*03:01 (setting [13]) and in the assay with HLA-A*02:01 (setting [13]) was no less than 20 µM each time. The dissociation constant (Kd) with HLA-B*46:01 (setting [13]), with HLA-B*57:01 (setting [13]), with HLA-A*02:16 (setting [13]), in the assay with HLA-B*18:01 (setting [13]), with HLA-B*39:01 (setting [13]) and in the assay with HLA-B*27:03 (setting [13]) was no less than 20 µM throughout. For the same sequence, the Kd with HLA-A*02:12 (setting [13]), with HLA-A*02:03 [2] (setting [13]) and in the assay with HLA-B*51:01 (setting [13]) was no less than 20 µM each time.

In the assay with HLA-B*15:02 [4] (source organism: Vibrio vulnificus YJ016), LLRMFDHPF gave an equilibrium dissociation constant (Kd) of 0.0209 µM.

With YTLNDAPYI, the Kd came out at 0.0381 µM with HLA-A*02:01 (setting [14]), 0.0024 µM in the assay with HLA-A*69:01 (setting [14]) and 0.181 µM in the assay with HLA-C*08:02.

Take FQKDAKVLF: the Kd in the assay with HLA-B*15:01 (setting [15]) was 0.116 µM; with HLA-B*15:02 [5] it was 1.72 µM; in the assay with HLA-A*11:01 (setting [15]) it was no less than 20 µM; with HLA-B*07:02 (setting [15]), no less than 20 µM; with HLA-A*02:01 (setting [15]), no less than 20 µM; with HLA-B*46:01 (setting [15]) it was no less than 20 µM. The Kd in the assay with HLA-B*57:01 (setting [15]) is no less than 20 µM; in the assay with HLA-A*68:02, no less than 20 µM; in the assay with HLA-A*01:01 (setting [15]), no less than 20 µM; with HLA-B*39:01 (source organism: Influenza A virus(A/swine/Shandong/fZC/2003(H9N2))), no less than 20 µM; in the assay with HLA-B*48:01 (setting [15]) it was 0.99 µM; in the assay with HLA-A*31:01 (setting [15]), no less than 20 µM. Besides, the Kd is no less than 20 µM in the assay with HLA-B*58:01 (setting [15]); no less than 20 µM with HLA-B*15:17; no less than 20 µM with HLA-A*69:01 (setting [15]); no less than 20 µM with HLA-B*08:01 [6]; 3.34 µM in the assay with HLA-B*27:05 [7]; no less than 20 µM in the assay with HLA-A*26:02. In the assay with HLA-A*02:03 [8], this sequence gave a Kd of no less than 20 µM.
